From US20250186597A1, “TARGETED IMMUNE ACTIVATION WITH IL-18 IMMUNOCYTOKINES” (BRIGHT PEAK THERAPEUTICS AG, priority 2023, published 2025) come the findings set out here.

In experiment [1] the test system is NK-92 cells. Nature of the experiment: IFNγ induction cellular assay in NK-92 cells (Example 4, used in Example 22C). Type of experiment: cell-based, human. To be noted: IFNg stimulation in NK92 cells. How it is done: The ability of immunocytokines and IL-18 polypeptides provided herein are assessed for ability to induce IFN[…] in a cellular assay according to the protocol below.
The NK cell line NK-92 derived from a patient with lymphoma (ATCC® CRL-2407™) is cultured in aMEM medium supplemented with 20% FCS, Glutamax, 25 µM B-mercaptoethanol, and 100 IU/mL of recombinant human IL-2.
On the day of experiment, cells are harvested and washed with aMEM medium without IL-2 and containing 1 ng/mL of recombinant human IL-12. After counting, cells are seeded at 100,000 cells/well in a 384 well titer plate and incubated at 37° C./5% CO2. Sixteen 4-fold serial dilutions of IL-18 analytes are prepared in aMEM medium, and 1 ng/mL of IL-12 were added to the NK-92 cells. Final IL-18 analyte concentrations range from 56 nM to 5×10^−5 pM.
After incubating the cells for 16-20 hr at 37° C./5% CO2, 5 μL of supernatant is carefully transferred to a 384 microwell OptiPlate. IFNγ levels are measured using a human IFNγ AlphaLISA Assay Kit. Briefly, 10 μL of 2.5× AlphaLISA Anti-IFNγ acceptor beads and biotinylated antibody anti-IFNγ mix are added to the 5 μL of NK-92 supernatants. The mixtures are incubated for 1 hr at room temperature with shaking. Under subdued light, 2.5 μL of 2× streptavidin (SA) donor beads are pipetted into each well, and the wells are incubated for 30 min at room temperature with shaking. AlphaLISA signals are then measured on an EnSpire™ plate reader using 680 nm and 615 nm as excitation and emission wavelengths, respectively. Half maximal effective concentrations (EC50) are calculated based on a variable slope and four parameter analysis using GraphPad PRISM software.
(§1) The experiments described in Example 4 for determination of IFNg stimulation in NK92 cells (and inhibition by IL-18 BP) were performed substantially as described on IL-18 polypeptides in order to assess their activities and their suitability for incorporation into immunocytokine compositions. It is expected that the IL-18 polypeptides provided below would behave analagously to C086 (SEQ ID NO: 30) when incorporated into an immunocytokine composition as those otherwise provided herein.

In another experiment the target is T1, human IL-18BP (Homo sapiens, UniProt O95998).
T1 construct: His
T1 sequence (O95998 31-194): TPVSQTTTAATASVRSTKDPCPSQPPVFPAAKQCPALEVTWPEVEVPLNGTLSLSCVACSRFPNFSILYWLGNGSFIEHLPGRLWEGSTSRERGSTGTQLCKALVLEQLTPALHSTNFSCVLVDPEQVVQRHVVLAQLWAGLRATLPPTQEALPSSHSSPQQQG
The experiment can be described thus: IL-18BP binding alphaLISA assay (Example 4, used in Example 22B). To be noted: IL-18BP AlphaLISA. Here is the method:
A human IL-18BP AlphaLISA Assay Kit is used to determine the binding affinity of each immunocytokine and IL-18 variant for IL-18BP, which detected the presence of free form IL-18BP.
Sixteen three-fold serial dilutions of IL-18 analytes are prepared in aMEM medium supplemented with 20% FCS, Glutamax, and 25 µM β-mercaptoethanol in the presence of 5 ng/mL of His-tagged human IL-18BP. Final IL-18 analytes concentration range from 2778 nM to […].
After 1 hr incubation at room temperature, free IL-18BP levels are measured using a […]. In a 384 well OPTIplate, 5 μL of 5× Anti-IL-18BP acceptor beads are added to 7.5 μL of an IL-18/IL-18BP mix. After 30 min incubation at room temperature with shaking, 5 μL of biotinylated Anti-IL-18BP antibodies are added to each well. The plate is incubated further for 1 hr at room temperature. Under subdued light, 12.5 μL of 2× streptavidin (SA) donor beads are pipetted into each well, and the wells are incubated with shaking for an additional 30 min at room temperature. The AlphaLisa signal is then measured on an Enspire plate reader with 680 and 615 nm as excitation and emission wavelengths, respectively. The dissociation constant (KD) is calculated based on a variable slope, four parameter analysis using GraphPad PRISM software.
An IL-18 binding protein AiphaLISA experiment substantially as described in Example 4 was performed on IL-18 polypeptide which can be incorporated into immunocytokine compositions as provided herein to assess ability to bind to IL-181BP. It is expected that the IL-18 polypeptides provided below would behave analogously to C086 (SEQ ID NO: 30) when incorporated into an immunocytokine composition as those otherwise provided herein.
(In general: Alpha assays give light when donor and acceptor beads are brought close together.)

Experiment [2] deals with NK-92 cells. Nature of the experiment: IL-18 binding protein inhibition cellular assay in NK-92 cells (Example 4, used in Example 22C). Type of experiment: cell-based, human. To be noted: inhibition by IL-18BP of IFNg stimulation in NK92 cells. Here is the method: The NK cell line NK-92 derived from a patient with lymphoma (ATCC® CRL-2407™) is cultured in aMEM medium supplemented with 20% FCS-Glutamax, 25 µM B-mercaptoethanol, and 100 IU/mL of recombinant human IL-2.
On the day of experiment, cells are harvested and washed with aMEM medium without IL-2 and containing 1 ng/mL of recombinant human IL-12. After counting, the cells are seeded at 100,000 cells/well in a 384 well titer plate and incubated at 37° C./5% CO2. Sixteen 2-fold serial dilutions of Fc-fused human IL-18 binding protein isoform a (IL-18BPa) are prepared in aMEM medium. 1 ng/mL of IL-12 containing 2 nM of each IL-18 polypeptide variant is added to the NK-92 cells. The final IL-18 analyte concentration is 1 nM, and the final IL-18BPa concentration ranged from 566 nM to […].
After incubating the cells for 16-20 hr at 37° C./5% CO2, 5 μL of the supernatant is carefully transferred to a 384 microwell OptiPlate. IFNγ levels are measured using a human IFNγ AlphaLISA Assay Kit. Briefly, 10 μL of 2.5× AlphaLISA anti-IFNγ acceptor beads and biotinylated antibody anti-IFNγ mix are added to 5 μL of NK-92 supernatants. The mixtures are incubated for 1 hr at room temperature with shaking. Under subdued light, 2.5 μL of 2×SA donor beads are pipetted in each well and incubated for 30 min at room temperature with shaking. AlphaLISA signals are then measured on an EnSpire™ plate reader using 680 nm and 615 nm as excitation and emission wavelengths, respectively. Half maximal inhibitory concentrations (IC50) are calculated based on a variable slope and four parameter analysis using GraphPad PRISM software.
as §1

Positions count from the first letter of the chain named. Numbers in names are those of the source.

B1: C144: IL-18 polypeptide: V11I, C38A, K53A, T63A, C76A, C127A (protein)
chain: YFGKLESKLSIIRNLNDQVLFIDQGNRPLFEDMTDSDARDNAPRTIFIISMYADSQPRGMAVAISVKCEKISTLSAENKIISFKEMNPPDNIKDTKSDIIFFQRSVPGHDNKMQFESSSYEGYFLAAEKERDLFKLILKKEDELGDRSIMFTVQNED
What is called EC50 is the concentration at which the effect is half-maximal. Higher therefore signals a need for much substance. The term Kd denotes the constant that tells how readily two partners part at equilibrium. A low value points to higher affinity. A word on the IC50: it is the concentration at which inhibition is half-maximal. In the experiment on NK-92 cells [1], B1 returned an EC50 of 0.012 nM. Further, the Kd with human IL-18BP is 0.66 nM. In addition, in the experiment with NK-92 cells [2], the IC50 is 7.52 nM.

B2: SEQ ID NO: 68: IL-18 polypeptide: V11I, C38A, M51G, K53A, C76A, C127A (protein)
chain: B1 chain with M51G, A63T
B2: the EC50 in the experiment on NK-92 cells [1] is 0.037 nM. Moreover, in the experiment with human IL-18BP, the Kd was found to be 373 nM. Also, the IC50 in the experiment with NK-92 cells [2] was determined as 733 nM.

B3: C153: IL-18 polypeptide: V11I, D37A, C38A, K53A, C76A, C127A (protein)
chain: B1 chain with D37A, A63T
For the molecule B3, in the experiment with NK-92 cells [1], the concentration giving a half-maximal response (EC50) amounted to 0.175 nM. In the experiment with human IL-18BP, this molecule returned a Kd of 4.55 nM. Besides, the IC50 in the experiment on NK-92 cells [2] came out at 2.22 nM.

B4: C149: IL-18 polypeptide: V11I, E31A, C38A, K53A, C76A, C127A (protein)
chain: B1 chain with E31A, A63T
Regarding B4, the EC50 with NK-92 cells [1] was determined as 0.187 nM. In addition, the Kd with human IL-18BP turned out to be 0.64 nM. In the experiment on NK-92 cells [2], the IC50 worked out at 1.17 nM.

B5: C155: IL-18 polypeptide: V11I, C38A, D40A, K53A, C76A, C127A (protein)
chain: B1 chain with D40A, A63T
B5 yielded an EC50 with NK-92 cells [1] of 0.067 nM. In the experiment with human IL-18BP, this molecule gave a Kd of 0.74 nM. In the experiment on NK-92 cells [2], this molecule showed an IC50 of 3.23 nM.

B6: C145: IL-18 polypeptide: V11I, C38A, K53A, S55A, C76A, C127A (protein)
chain: B1 chain with S55A, A63T
Take B6: the EC50 with NK-92 cells [1] was found to be 0.087 nM. In the experiment with human IL-18BP, this molecule yielded a Kd of 9.74 nM. For the same molecule, the IC50 in the experiment with NK-92 cells [2] stood at 10.2 nM.

B7: C156: IL-18 polypeptide: V11I, C38A, N41A, K53A, C76A, C127A (protein)
chain: B1 chain with N41A, A63T
In the experiment on NK-92 cells [1], B7 had an EC50 of 0.558 nM. The same molecule gave a Kd with human IL-18BP of 18.5 nM. Moreover, the IC50 with NK-92 cells [2] is 0.681 nM.

B8: C152: IL-18 polypeptide: V11I, S36A, C38A, K53A, C76A, C127A (protein)
chain: B1 chain with S36A, A63T
As for B8, in the experiment with NK-92 cells [1], the EC50 is 0.033 nM. In the experiment with human IL-18BP, this molecule showed a Kd of 1.12 nM. In the experiment on NK-92 cells [2], the IC50 is 7.85 nM.

B9: C147: IL-18 polypeptide: V11I, C38A, K53A, D54A, C76A, C127A (protein)
chain: B1 chain with D54A, A63T
B9 displayed an EC50 in the experiment with NK-92 cells [1] of 0.079 nM. In addition, the dissociation constant (Kd) with human IL-18BP worked out at 25.8 nM. The IC50 with NK-92 cells [2] amounted to 47.6 nM.

B10: C151: IL-18 polypeptide: V11I, D35A, C38A, K53A, C76A, C127A (protein)
chain: B1 chain with D35A, A63T
Regarding B10, the EC50 in the experiment with NK-92 cells [1] turned out to be 0.061 nM. In the experiment with human IL-18BP, this molecule had a dissociation constant Kd of 2.88 nM. In the experiment with NK-92 cells [2], the IC50 came out at 3.62 nM.

B11: C154: IL-18 polypeptide: V11I, E31A, D37A, C38A, K53A, C76A, C127A (protein)
chain: B1 chain with E31A, D37A, A63T
As to B11, a half-maximal response in the experiment on NK-92 cells [1] (EC50) required 0.062 nM. This molecule also gave a Kd with human IL-18BP of 2.12 nM. Moreover, in the experiment on NK-92 cells [2], the IC50 was 3.71 nM.

B12: C158: IL-18 polypeptide: V11I, C38A, K53A, C76A, G108A, C127A (protein)
chain: B1 chain with A63T, G108A
The molecule B12 came in with an EC50 in the experiment on NK-92 cells [1] of 0.073 nM. Also, the Kd with human IL-18BP came out at 1.24 nM. Further, the IC50 with NK-92 cells [2] stood at 3.98 nM.

B13: C157: IL-18 polypeptide: V11I, C38A, K53A, C76A, C127A, D132A (protein)
chain: B1 chain with A63T, D132A
With B13, the midpoint of the response in the experiment on NK-92 cells [1], the EC50, lay at 0.056 nM. The affinity with human IL-18BP, expressed as Kd, was 13.7 nM. For the same molecule, the IC50 in the experiment on NK-92 cells [2] was determined as 6.08 nM.

B14: C148: IL-18 polypeptide: F2A, V11I, C38A, K53A, C76A, C127A (protein)
chain: B1 chain with F2A, A63T
Molecule B14 registered an EC50 in the experiment on NK-92 cells [1] of 0.256 nM. The molecule also gave a Kd with human IL-18BP of 57.2 nM. For the same molecule, the IC50 in the experiment on NK-92 cells [2] worked out at 5.05 nM.

B15: C159: IL-18 polypeptide: V11I, C38A, K53A, C76A, H109A, C127A (protein)
chain: B1 chain with A63T, H109A
Regarding B15, in the experiment on NK-92 cells [1], the response was half-maximal at 0.123 nM (EC50). Also, the Kd in the experiment with human IL-18BP was determined as 0.55 nM. The molecule further came in with an IC50 in the experiment on NK-92 cells [2] of 1.81 nM.

B16: C150: IL-18 polypeptide: V11I, T34A, C38A, K53A, C76A, C127A (protein)
chain: B1 chain with T34A, A63T
Molecule B16 registered an EC50 in the experiment with NK-92 cells [1] of 0.015 nM. This molecule gave an equilibrium dissociation constant (Kd) with human IL-18BP of 1.24 nM. The same molecule yielded an IC50 with NK-92 cells [2] of 21.3 nM.
